Tests used:
[1] = biological target: T1, rHuman IGF-1 sR (IGF-1 sR), CF (R&D Systems Cat#391-GR) (human, UniProt P08069 31-932); assay: ECL (MSD multi-spot), antigen spotted on plate; Fab 8 nM; blank 1188
T1 construct: Bought soluble receptor; also called insulin-like growth factor-1 soluble receptor; IGF-R1

[2] = biological target: T2, Recombinant Human DLL4 (R&D Systems Cat#1506-D4/CF) (human, UniProt Q9NR61 27-524); assay: as above
T2 construct: Bought protein; also called rHuman DLL4; delta-like protein 4

[3] = biological target: T3, rHuman EGF R/Fc Chimera, CF (R&D Systems Cat#344-ER) (human, UniProt P00533 25-645); assay: as above
T3 construct: Bought protein; also called epidermal growth factor receptor; Fc part of the bought chimera not given

[4] = biological target: T4, rHuman HGF R/c-MET/Fc Chimera, CF (R&D Systems Cat#358-MT/CF) (human, UniProt P08581 25-932); assay: as above
T4 construct: Bought protein; also called HGF R/Fc; hepatocyte growth factor receptor; Fc part of the bought chimera not given

[5] = biological target: T1, rHuman IGF-1 sR (IGF-1 sR), CF (R&D …); assay: ECL (MSD multi-spot), antigen spotted on plate; Fab 1.6 nM; blank 648
[6] = biological target: T2, Recombinant Human DLL4 (R&D Systems …); assay: as above
[7] = biological target: T3, rHuman EGF R/Fc Chimera, CF (R&D …); assay: as above
[8] = biological target: T4, rHuman HGF R/c-MET/Fc Chimera, CF (R&D …); assay: as above
[9] = biological target: T1, rHuman IGF-1 sR (IGF-1 sR), CF (R&D …); assay: ECL (MSD multi-spot), antigen spotted on plate; Fab 40 nM; blank 1229
[10] = biological target: T2, Recombinant Human DLL4 (R&D Systems …); assay: as above
[11] = biological target: T3, rHuman EGF R/Fc Chimera, CF (R&D …); assay: as above
[12] = biological target: T4, rHuman HGF R/c-MET/Fc Chimera, CF (R&D …); assay: as above
[13] = biological target: T1, rHuman IGF-1 sR (IGF-1 sR), CF (R&D …); assay: ECL (MSD multi-spot), antigen spotted on plate; Fab 0.32 nM; blank 428
[14] = biological target: T2, Recombinant Human DLL4 (R&D Systems …); assay: as above
[15] = biological target: T3, rHuman EGF R/Fc Chimera, CF (R&D …); assay: as above
[16] = biological target: T4, rHuman HGF R/c-MET/Fc Chimera, CF (R&D …); assay: as above
[17] = biological target: T1, rHuman IGF-1 sR (IGF-1 sR), CF (R&D …); assay: ECL (MSD multi-spot), antigen spotted on plate; Fab 200 nM; blank 1659
[18] = biological target: T2, Recombinant Human DLL4 (R&D Systems …); assay: as above
[19] = biological target: T3, rHuman EGF R/Fc Chimera, CF (R&D …); assay: as above
[20] = biological target: T4, rHuman HGF R/c-MET/Fc Chimera, CF (R&D …); assay: as above
[21] = biological target: T1, rHuman IGF-1 sR (IGF-1 sR), CF (R&D …); assay: ECL (MSD multi-spot), antigen spotted on plate; Fab 1000 nM; blank 2142
[22] = biological target: T2, Recombinant Human DLL4 (R&D Systems …); assay: as above
[23] = biological target: T3, rHuman EGF R/Fc Chimera, CF (R&D …); assay: as above
[24] = biological target: T4, rHuman HGF R/c-MET/Fc Chimera, CF (R&D …); assay: as above
[25] = biological target: T1, rHuman IGF-1 sR (IGF-1 sR), CF (R&D …); assay: ECL (MSD multi-spot), antigen spotted on plate; Fab 10 nM; blank 427
[26] = biological target: T5, rHuman P-Cadherin/Fc Chimera, CF (R&D Systems Cat#861-PC) (human, UniProt P22223 108-654); assay: as above
T5 construct: Bought protein; also called CDH3; Fc part of the bought chimera not given

[27] = biological target: T2, Recombinant Human DLL4 (R&D Systems …); assay: as above
[28] = biological target: T6, rHuman CD44/Fc Chimera, CF (R&D Systems Cat#3660-CD) (human, UniProt P16070 21-220); assay: as above
T6 construct: Bought protein; Fc part of the bought chimera not given

[29] = biological target: T1, rHuman IGF-1 sR (IGF-1 sR), CF (R&D …); assay: ECL (MSD multi-spot), antigen spotted on plate; Fab 1000 nM; blank 1742
[30] = biological target: T5, rHuman P-Cadherin/Fc Chimera, CF (R&D …); assay: as above
[31] = biological target: T2, Recombinant Human DLL4 (R&D Systems …); assay: as above
[32] = biological target: T6, rHuman CD44/Fc Chimera, CF (R&D Systems …); assay: as above
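Also: blank spot per well as comparator with Hit at signal to blank ratio of 4 or more.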

B1: Fab VH1-46_IGHD6-6*01_IGHJ1*01_S104A & L6_IGKJ1*01 (Fab, V domains shown)
VH: QVQLVQSGAEVKKPGASVKVSCKASGYTFTSYYMHWVRQAPGQGLEWMGIINPSGGSTSYAQKFQGRVTMTRDTSTSTVYMELSSLRSEDTAVYYCAREEYSSASAEYFQHWGQGTLVTVSS
VL: not shown
notes: Expressed in E. coli as a Fab; CH1 with Flag and His tags comes from Plasmid A and the kappa CL from Plasmid C; also called IGHV1-46*01; IGHJ1*01 S104A with IGKV3-11*01
ECL signal [1]: 1290 | ECL signal [2]: 9330 | ECL signal [3]: 1300 | ECL signal [4]: 1300 | ECL signal [5]: 815 | ECL signal [6]: 2130 | ECL signal [7]: 862 | ECL signal [8]: 830 | ECL signal [9]: 1900 | ECL signal [10]: 13600 | ECL signal [11]: 1840 | ECL signal [12]: 1540 | ECL signal [13]: 611 | ECL signal [14]: 646 | ECL signal [15]: 660 | ECL signal [16]: 574 | ECL signal [17]: 2600 | ECL signal [18]: 14800 | ECL signal [19]: 2950 | ECL signal [20]: 2440 | ECL signal [21]: 3350 | ECL signal [22]: 14300 | ECL signal [23]: 3480 | ECL signal [24]: 3530

B2: Fab VH5-51_IGHD5-18*01>3_IGHJ4*01_G104T & V3-4_IGLJ1*01 (Fab, V domains shown)
VH: EVQLVQSGAEVKKPGESLKISCKGSGYSFTSYWIGWVRQMPGKGLEWMGIIYPGDSDTRYSPSFQGQVTISADKSISTAYLQWSSLKASDTAMYYCARRGYSYTYDYFDYWGQGTLVTVSS
VL: QTVVTQEPSFSVSPGGTVTLTCGLSSGSVSTSYYPSWYQQTPGQAPRTLIYSTNTRSSGVPDRFSGSILGNKAALTITGAQADDESDYYCVLYMGSGISYVFGTGTKVTVL
notes: Expressed in E. coli as a Fab; CH1 with Flag and His tags comes from Plasmid A and the lambda CL from Plasmid E; also called IGHV5-51*03; IGHJ4*01 G104T with IGLV8-61*01
ECL signal [25]: 1120 | ECL signal [26]: 705 | ECL signal [27]: 5230 | ECL signal [28]: 841 | ECL signal [29]: 3990 | ECL signal [30]: 3430 | ECL signal [31]: 29800 | ECL signal [32]: 3380
